Test results: paper PMC10333351 (Nature Communications, 2023)
Positions count from the first letter of the chain named.

Assays:
[1] = target: the molecule itself; assay: cryo-EM structure; KpFtsZ-Mb double-helical tube: 4.0 mg/ml KpFtsZ, 20 mM HEPES pH 7.5, 25 mM NaCl, 100 mM KCl, 5 mM MgCl2, 1 mM GMPPNP, 0.12 mM PC190723, 1.2x molar excess of Mb
[2] = target: the molecule itself; assay: negative staining EM; 1.0 mg/ml purified KpFtsZ alone or with 1 mM GTP, GMPCPP, GDP or GMPPNP; uranyl acetate stain
[3] = target: the molecule itself; assay: crystal structure; FtsZtr mixed with 1.2x molar excess of Mb and PC190723; hanging drop, 293 K, 0.2 M sodium formate, 0.1 M Bis-Tris propane pH 6.5, 20% PEG3350; space groups P212121 and P21
[4] = target: T1, FtsZ from Escherichia coli, full length, purified (tag state not stated) (Escherichia coli, UniProt P0A9A6 1-383); assay: SPR
T1 chain: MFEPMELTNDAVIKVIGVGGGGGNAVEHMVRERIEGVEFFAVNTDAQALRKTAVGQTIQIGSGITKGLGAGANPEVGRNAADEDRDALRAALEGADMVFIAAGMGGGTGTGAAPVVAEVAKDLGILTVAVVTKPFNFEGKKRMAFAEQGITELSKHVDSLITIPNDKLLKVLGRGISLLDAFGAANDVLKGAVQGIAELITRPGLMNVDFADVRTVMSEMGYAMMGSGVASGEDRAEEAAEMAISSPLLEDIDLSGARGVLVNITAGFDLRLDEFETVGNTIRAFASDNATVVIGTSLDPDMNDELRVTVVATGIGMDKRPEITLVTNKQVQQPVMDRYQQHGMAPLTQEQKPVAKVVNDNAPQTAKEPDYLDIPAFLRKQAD

[5] = target: T2, FtsZ from Klebsiella pneumoniae, full length, purified (tag state not stated) (Klebsiella pneumoniae, UniProt W9BCK7 1-383); assay: SPR
T2 chain: T1 chain with D86E, E93D, A345S, V354A, A362T

B1: FtsZ from Klebsiella pneumoniae, full length, tag removed (natural protein, UniProt W9BCK7 1-383, looked up)
chain: T1 chain with D86E, E93D, A345S, V354A, A362T
notes: Used for cryoEM; Polymer (protofilament or double-helical tube); also called KpFtsZ; source: E. coli, purified (HisTrap, HiTrap Q, Superdex200), tag removed with TEV protease; not shown: His6, N-terminal, cleaved
Question: Does B1 bind [1]?
Answer: binds

B2: FtsZ from Klebsiella pneumoniae, full length, purified (tag state not stated) (natural protein, UniProt W9BCK7 1-383, looked up)
chain: T1 chain with D86E, E93D, A345S, V354A, A362T
notes: Used for SPR (analyte) and negative staining EM; also called KpFtsZ; source: E. coli, purified (HisTrap, HiTrap Q, Superdex200)
Question: Does B2 bind [2]?
Answer: binds

B3: truncated KpFtsZ (residues 11-316), tag removed (domain or fragment, Klebsiella pneumoniae, UniProt W9BCK7 11-316, looked up)
chain: AVIKVIGVGGGGGNAVEHMVRERIEGVEFFAVNTDAQALRKTAVGQTIQIGSGITKGLGAGANPEVGRNAADEDREALRAALDGADMVFIAAGMGGGTGTGAAPVVAEVAKDLGILTVAVVTKPFNFEGKKRMAFAEQGITELSKHVDSLITIPNDKLLKVLGRGISLLDAFGAANDVLKGAVQGIAELITRPGLMNVDFADVRTVMSEMGYAMMGSGVASGEDRAEEAAEMAISSPLLEDIDLSGARGVLVNITAGFDLRLDEFETVGNTIRAFASDNATVVIGTSLDPDMNDELRVTVVATGIG
notes: FtsZ, Klebsiella pneumoniae, residues 11-316; also called KpFtsZtr; source: E. coli, purified (HisTrap, HiTrap Q, Superdex200), tag removed with TEV protease; not shown: His6, N-terminal, cleaved
Question: Does B3 bind [3]?
Answer: binds

B4: truncated EcFtsZ (residues 11-316), tag removed (domain or fragment, Escherichia coli, UniProt P0A9A6 11-316, looked up)
chain: B3 chain with E76D, D83E
notes: FtsZ, Escherichia coli, residues 11-316; also called EcFtsZtr; source: E. coli, purified (HisTrap, HiTrap Q, Superdex200), tag removed with TEV protease; not shown: His6, N-terminal, cleaved
Question: Does B4 bind [3]?
Answer: binds

B5: Mb(Ec/KpFtsZ_S1), His10-tagged (designed binder)
chain: MKHHHHHHHHHHSSDYKDDDDKGENLYFQGSVSSVPTKLEVVAATPTSLLISWDAPAVTVSYYRITYGETGGNSPVQEFTVPGSKSTATISGLSPGVDYTITVYARSAYHRRSPISINYRT
Question: What does the source list for B5?
Answer: koff [4]: 0.39 s⁻¹; koff [5]: 0.67 s⁻¹
